Patent US9340577B2, “HLA binding motifs and peptides and their uses” (priority 1992, dated 2016)
No end group written: not given here.

Biological target: HLA-A*0201 (HLA-A2.1) (Homo sapiens, UniProt P04439, D140Y/D185E/D98H/E176V/E277Q/G131W/G231S/I119V/I121R/I166T/I218V/L300P/L318F/N151K/N90K/P208A/P217A/Q86G/Q94H/R138H/R169H/T345S)
Test: biochemical
Type: binding

Sequence	binding to HLA-A2.1 (column 3; no allele head shown for these rows)	A2.1	further results
IIAIEGDCA	0		
YLEYGRCRTVI	0.0006		
LVMIAMEGG		<0.0002	
CLLAKTCPV [Peptide 1326.01]			A*0201: 0.0400
EALGLVCVQA	0.0005		
GIEVVEVVPI	<0.0002		
GLYDGREHTV [Peptide 1586.06]			IC50: 144 nM
KASEYLQLV	0.011		
CLGLSYDGLL		0	
QIMPKTGFLI	0.0009		
EIWEELSVM	0		
KTGFLIIVL	0.0006		
DLESEFQAA	0		
CKPEEALEA		<0.0002	
FPTTINFTR		<0.0002	
IIVLVMIAM	0.0007		
SLHCKPEEAL		0.0002	
GKASESLQL		<0.0002	
BQLAKTBPV [Peptide 1329.14]			A*0201: 0.0490
CILESLFRAVI	0.0030		
ILESLFRAVI		0.0002	
AATSSSSPLV	0		
IMPKAGLLI	0.0064		
ATVGIJIGV [Peptide 1345.02]			A*0201: 0.1595
YMIMVKBWMI [Peptide 1334.04]			A*0201: 0.2700

Sequence	binding to HLA-A2.1 (column 3; no allele head shown for these rows)	A2.1	further results
PIGHLYIFA	0		
PTGHSYVLV	0		
AISRKMVELV		0	
PRKLLTQDL		<0.0002	
CILESLFRAV		0.0003	
ALEAQQEA		0	
DLESEFQAAI	0		
AALREEEEGV	0		
DLVQEKYL		0	
LLGDNQIM		0	
LIIVLVMIAM	0.0003		
AMBRWGLLV [Peptide 1334.08]			A*0201: 0.1400
VTCLGLSYD		<0.0002	
ILESLFRAV		0.0004	
LLKYRAREPV		0	
GVQGPSLKPAM	0		
LVMIAMEGGHA	0.0005		
VTKAEMLGSV	<0.0002		
CQLAKTCPV [Peptide 1324.07]			A*0201: 0.0240
VTKAEMLESV	0		
ITKKVADLV	0		
AVITKKVAD		<0.0002	
ATSSSSPLV	0.0007		
SREEEGPST		<0.0002	
IJIGVLVGV [Peptide 1345.01]			A*0201: 0.0570

Sequence	binding to HLA-A2.1 (column 3; no allele head shown for these rows)	A2.1	further results
MSSCGVQGP		<0.0002	
EIFGKASESL		0	
IVLVMIAM	0.0001		
QIMPKAGLL		0	
LQLVFGIDV	0.0004		
PLVLGTLEE		<0.0002	
VLGTLEEVPT	0.0004		
ALNKMFBQV [Peptide 1323.04]			A*0201: 0.0260
VQAATSSSS		<0.0002	
GVQGPSLKPA		0.0001	
GIELMEVDPI	<0.0002		
RAREPVTKA	0		
FLIIVLVM		0	
LIIVLVMIA	0		
VPTAGSTDP		<0.0002	
ALEAQQEAL		<0.0003	
IIVLVMIA	0.0002		
YLCNSSCMGGV [Peptide 1323.31]			A*0201: 0.2300
KAEMLGSVV	0		
GIDVKEADPT	0		
ELSVMEVYD		<0.0002	
LIIVLVMI	0.0001		
QLVFGIDVKEA	0.0001		
YLIMVKBWMV [Peptide 1334.05]			A*0201: 0.6900
VMVTCLGLSV	0.30		

Sequence	binding to HLA-A2.1 (column 3; no allele head shown for these rows)	A2.1	further results
DLESEFQAAISRKMV	0		
QAALSRKVA	0		
VLGTLEEVPTA	0.0002		
PKTGFLIIV		<0.0002	
YMCNSSCMGGM [Peptide 1323.29]			A*0201: 0.0075
EIWEELSV	0		
KAGLLIIVLA	<0.0002		
YKHCFPEIF		<0.0002	
YLEYGRCRT	0		
VVEVVPISHL	<0.0002		
HAPEEEIWE		<0.0002	
PTGHSYVLVT	0		
SESLQLVFGI	0		
YVKVLEYVI	0.0002		
EALEAQQEA	0		
GLYDGMEHV [Peptide 1586.08]			IC50: 155 nM
AVITKKVADL		0	
KTGFLIIVLV	0.0012		
DLVQEKYLEYRQV	0		
FLIIVLVMI		0.0005	
QVMPKTGLL	0		
YIFATCLGL		0.018	
ATSSSSPLVL	0		
RVRFFFPSL	0.0001		
EVDPIGHLYI	<0.0002		

Sequence	binding to HLA-A2.1 (column 3; no allele head shown for these rows)	A2.1	further results
STSCILESL	0.0002		
LLSRDLQQSL		0.0007	
RKLLTQDLV	0		
LAETSYVKV	0		
GLSYDGLLV	0.0047		
QIMPKTGFL		0.0007	
ALEAQQEALGL	0.0001		
BLLAKTBPV [Peptide 1329.15]			A*0201: 0.1100
LVGFLLLKYRA	0.0004		
QRQPSEGSS		<0.0002	
SJPPPGTRV [Peptide 1345.03]			A*0201: 0.0545
PLVLGTLEEV		0.0008	
RCRTVIPHA		<0.0002	
GMCCPDLSPV [Peptide 41.0157]			A*0201: 0.0950
QAAISRKMV	0		
KTGLLIIVLA	<0.0002		
BLTIHYNYV [Peptide 1323.08]			A*0201: 0.0430
RAVITKKVA	0		
VITKKVADLV		0	
QLVFGIDV		0	
TLEEVPTA		0	
QQEALGLVC		<0.0002	
GREHSAYGE		<0.0002	
GLSYDGLL		0.0001	
